Measurements reported in IntAct's records for PubMed 25910212.

B1: Low density lipoprotein receptor adapter protein 1 (Homo sapiens), Q5SW96 (parent)
chain: MDALKSAGRALIRSPSLAKQSWGGGGRHRKLPENWTDTRETLLEGMLFSLKYLGMTLVEQPKGEELSAAAIKRIVATAKASGKKLQKVTLKVSPRGIILTDNLTNQLIENVSIYRISYCTADKMHDKVFAYIAQSQHNQSLECHAFLCTKRKMAQAVTLTVAQAFKVAFEFWQVSKEEKEKRDKASQEGGDVLGARQDCTPSLKSLVATGNLLDLEETAKAPLSTVSANTTNMDEVPRPQALSGSSVVWELDDGLDEAFSRLAQSRTNPQVLDTGLTAQDMHYAQCLSPVDWDKPDSSGTEQDDLFSF
partner: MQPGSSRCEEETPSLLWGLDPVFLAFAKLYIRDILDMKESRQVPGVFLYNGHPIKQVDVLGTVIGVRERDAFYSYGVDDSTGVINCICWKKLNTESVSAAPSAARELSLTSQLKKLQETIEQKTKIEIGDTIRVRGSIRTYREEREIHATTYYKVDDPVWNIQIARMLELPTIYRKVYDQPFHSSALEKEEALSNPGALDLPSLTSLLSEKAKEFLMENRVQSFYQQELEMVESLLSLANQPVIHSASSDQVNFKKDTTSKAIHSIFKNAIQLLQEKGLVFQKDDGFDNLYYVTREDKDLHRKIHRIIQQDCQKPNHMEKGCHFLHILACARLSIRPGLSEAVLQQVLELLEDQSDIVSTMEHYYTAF
B2: Emerin (Homo sapiens), P50402 (parent)
chain: MDNYADLSDTELTTLLRRYNIPHGPVVGSTRRLYEKKIFEYETQRRRLSPPSSSAASSYSFSDLNSTRGDADMYDLPKKEDALLYQSKGYNDDYYEESYFTTRTYGEPESAGPSRAVRQSVTSFPDADAFHHQVHDDDLLSSSEEECKDRERPMYGRDSAYQSITHYRPVSASRSSLDLSYYPTSSSTSFMSSSSSSSSWLTRRAIRPENRAPGAGLGQDRQVPLWGQLLLFLVFVIVLFFIYHFMQAEEGNPF
partner: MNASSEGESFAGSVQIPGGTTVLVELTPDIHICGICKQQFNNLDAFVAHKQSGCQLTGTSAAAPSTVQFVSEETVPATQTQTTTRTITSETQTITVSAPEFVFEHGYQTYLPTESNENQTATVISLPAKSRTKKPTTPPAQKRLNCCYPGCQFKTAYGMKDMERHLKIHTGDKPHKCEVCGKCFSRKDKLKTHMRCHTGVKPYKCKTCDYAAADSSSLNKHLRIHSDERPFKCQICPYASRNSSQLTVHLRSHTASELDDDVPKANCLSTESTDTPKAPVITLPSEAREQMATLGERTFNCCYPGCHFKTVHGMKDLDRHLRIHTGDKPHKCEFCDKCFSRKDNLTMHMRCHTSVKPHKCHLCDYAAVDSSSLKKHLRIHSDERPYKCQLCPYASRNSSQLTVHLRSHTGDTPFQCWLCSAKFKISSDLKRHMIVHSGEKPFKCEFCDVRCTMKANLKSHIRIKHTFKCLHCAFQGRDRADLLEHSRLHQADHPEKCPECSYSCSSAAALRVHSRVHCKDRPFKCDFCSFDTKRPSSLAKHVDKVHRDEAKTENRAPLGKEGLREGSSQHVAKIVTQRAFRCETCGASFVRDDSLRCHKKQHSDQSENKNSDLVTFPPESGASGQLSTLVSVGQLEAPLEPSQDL
B3: Ketohexokinase (Homo sapiens), P50053-2 (parent)
chain: MEEKQILCVGLVVLDVISLVDKYPKEDSEIRCLSQRWQRGGNASNSCTVLSLLGAPCAFMGSMAPGHVADFVLDDLRRYSVDLRYTVFQTTGSVPIATVIINEASGSRTILYYDRSLPDVSATDFEKVDLTQFKWIHIEGRNASEQVKMLQRIDAHNTRQPPEQKIRVSVEVEKPREELFQLFGYGDVVFVSKDVAKHLGFQSAEEALRGLYGRVRKGAVLVCAWAEEGADALGPDGKLLHSDAFPPPRVVDTLGAGDTFNASVIFSLSQGRSVQEALRFGCQVAGKKCGLQGFDGIV
partner: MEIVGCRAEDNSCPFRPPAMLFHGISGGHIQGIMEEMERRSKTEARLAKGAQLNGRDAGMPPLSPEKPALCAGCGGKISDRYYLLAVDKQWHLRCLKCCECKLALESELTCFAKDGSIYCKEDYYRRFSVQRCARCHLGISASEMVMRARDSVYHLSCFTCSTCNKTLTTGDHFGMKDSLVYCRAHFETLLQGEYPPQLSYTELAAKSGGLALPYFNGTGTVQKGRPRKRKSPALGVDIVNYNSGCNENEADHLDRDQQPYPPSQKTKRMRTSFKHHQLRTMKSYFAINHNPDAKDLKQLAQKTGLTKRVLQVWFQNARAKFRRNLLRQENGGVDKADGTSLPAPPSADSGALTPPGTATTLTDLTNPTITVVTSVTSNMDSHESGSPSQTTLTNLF
B4: Emerin (Homo sapiens), P50402 (parent)
chain: B2 chain
partner: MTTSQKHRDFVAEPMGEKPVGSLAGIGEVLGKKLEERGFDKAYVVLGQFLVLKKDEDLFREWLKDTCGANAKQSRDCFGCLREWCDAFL

Variants of: B1
Conditions: with stn1_human STN1, Q9H668

Variant	effect of a mutation on the interaction
MDALKSAGRALIRSPSLAKQSWGGGGRHRKLPENWTDTRETLLEGMLFSLKYLGMTLVEQPKGEELSAAAIKRIVATAKASGKKLQKVTLKVSPRGIILTDNLTNQLIENVSIYRISYCTADKMHDKVFAYIAQSQHNQSLECHAFLCTKRKMAQAVTLTVAQAFKVAFEFWQVSKEEKEKRDKASQEGGDVLGARQDCTPSLKSLVATGNLLDLEETAKAPLSTVSANTTNMDEVPWPQALSGSSVVWELDDGLDEAFSRLAQSRTNPQVLDTGLTAQDMHYAQCLSPVDWDKPDSSGTEQDDLFSF [R238W]	with no effect

Variants of: B2
Conditions: with zf64b_human ZFP64, Q9NTW7

Variant	effect of a mutation on the interaction
MDNYADLSDTELTTLLRRYNIPHGPVVGSTRRLYEKKIFEYETQRRRLSPPSSSAASSYSFSDLNSTRGDAVMYDLPKKEDALLYQSKGYNDDYYEESYFTTRTYGEPESAGPSRAVRQSVTSFPDADAFHHQVHDDDLLSSSEEECKDRERPMYGRDSAYQSITHYRPVSASRSSLDLSYYPTSSSTSFMSSSSSSSSWLTRRAIRPENRAPGAGLGQDRQVPLWGQLLLFLVFVIVLFFIYHFMQAEEGNPF [D72V]	with no effect
MDNYADLSDTELTTLLRRYNIPHGPVVGSTRRLYEKKIFEYETQRRRLSPPSSSAASSYSFSDLNSTRGDADMYDLPKKEDALLYQSKGYNDDYYEESYFTTRTYGEPESAGPSRAVRQSVTSFPDADAFHHQVHDDDLLSSSEEECKDRERPMYGRDSAYQSITHYRPVSASRSSLDLSYYTTSSSTSFMSSSSSSSSWLTRRAIRPENRAPGAGLGQDRQVPLWGQLLLFLVFVIVLFFIYHFMQAEEGNPF [P183T]	with no effect
MDNYADLSDTELTTLLRRYNIPHGPVVGSTRRLYEKKIFEYETQRRRLSPPSSSAASSYSFSDLNSTRGDADMYDLPKKEDALLYQSKGYNDDYYEESYFTTRTYGEPESAGPSRAVRQSVTSFPDADAFHHQVHDDDLLSSSEEECKDRERPMYGRDSAYQSITHYRPVSASRSSLDLSYYHTSSSTSFMSSSSSSSSWLTRRAIRPENRAPGAGLGQDRQVPLWGQLLLFLVFVIVLFFIYHFMQAEEGNPF [P183H]	with no effect
MDNYADLSDTELTTLLRRYNIPHGPVVGSTRRLYEKKIFEYETQRRRLSPPSSFAASSYSFSDLNSTRGDADMYDLPKKEDALLYQSKGYNDDYYEESYFTTRTYGEPESAGPSRAVRQSVTSFPDADAFHHQVHDDDLLSSSEEECKDRERPMYGRDSAYQSITHYRPVSASRSSLDLSYYPTSSSTSFMSSSSSSSSWLTRRAIRPENRAPGAGLGQDRQVPLWGQLLLFLVFVIVLFFIYHFMQAEEGNPF [S54F]	with no effect

Variants of: B3
Conditions: with lhx9_human LHX9, Q9NQ69

Variant	effect of a mutation on the interaction
MEEKQILCVGLVVLDVISLVDKYPKEDSEIRCLSQRWQRRGNASNSCTVLSLLGAPCAFMGSMAPGHVADFVLDDLRRYSVDLRYTVFQTTGSVPIATVIINEASGSRTILYYDRSLPDVSATDFEKVDLTQFKWIHIEGRNASEQVKMLQRIDAHNTRQPPEQKIRVSVEVEKPREELFQLFGYGDVVFVSKDVAKHLGFQSAEEALRGLYGRVRKGAVLVCAWAEEGADALGPDGKLLHSDAFPPPRVVDTLGAGDTFNASVIFSLSQGRSVQEALRFGCQVAGKKCGLQGFDGIV [G40R]	with no effect
MEEKQILCVGLVVLDVISLVDKYPKEDSEIRCLSQRWQRGGNTSNSCTVLSLLGAPCAFMGSMAPGHVADFVLDDLRRYSVDLRYTVFQTTGSVPIATVIINEASGSRTILYYDRSLPDVSATDFEKVDLTQFKWIHIEGRNASEQVKMLQRIDAHNTRQPPEQKIRVSVEVEKPREELFQLFGYGDVVFVSKDVAKHLGFQSAEEALRGLYGRVRKGAVLVCAWAEEGADALGPDGKLLHSDAFPPPRVVDTLGAGDTFNASVIFSLSQGRSVQEALRFGCQVAGKKCGLQGFDGIV [A43T]	with no effect

Variants of: B4
Conditions: with baf_human BANF1, O75531

Variant	effect of a mutation on the interaction
MDNYADLSDTELTTLLRRYNIPHGPVVGSTRRLYEKKIFEYETQRRRLSPPSSSAASSYSFSDLNSTRGDADMYDLPKKEDALLYQSKGYNDDYYEESYFTTRTYGEPESAGPSRAVRQSVTSFPDADAFHHQVHDDDLLSSSEEECKDRERPMYGRDSAYQSITHYRPVSASRSSLDLSYYTTSSSTSFMSSSSSSSSWLTRRAIRPENRAPGAGLGQDRQVPLWGQLLLFLVFVIVLFFIYHFMQAEEGNPF [P183T]	with no effect
MDNYADLSDTELTTLLRRYNIPHGPVVGSTRRLYEKKIFEYETQRRRLSPPSSSAASSYSFSDLNSTRGDADMYDLPKKEDALLYQSKGYNDDYYEESYFTTRTYGEPESAGPSRAVRQSVTSFPDADAFHHQVHDDDLLSSSEEECKDRERPMYGRDSAYQSITHYRPVSASRSSLDLSYYHTSSSTSFMSSSSSSSSWLTRRAIRPENRAPGAGLGQDRQVPLWGQLLLFLVFVIVLFFIYHFMQAEEGNPF [P183H]	with no effect
